Data: patent publication US8394607B2, “Anti-CD22 antibodies and immunoconjugates and methods of use” (Genentech, Inc., priority 2006, dated 2013)
Where “and” joins values, the source holds several entries; their conditions need not be identical. Equal entries are not always repeated. Each block holds one molecule with its values, some of them ahead of it.

Key:
[1] = system: DoHH2 cells; test: DoHH2 xenograft tumor volume reduction; type: in vivo; conditions: Table 16 study; follicular lymphoma DOHH2 xenograft, CB17 SCID mice; 600 or 300 μg/m^2
Source text: In a similar study, using the same xenograft study protocol as disclosed in the above examples, varying the TDCs and doses administered, the efficacy of TDCs in follicular lymphoma DOHH2 xenografts in CB17 SCID mice was studied.

[2] = system: Granta-519 cells; test: Granta-519 xenograft tumor volume reduction; type: in vivo, SCID mice; conditions: Table 14 study, FIG. 19, 100 μg/m^2 drug at Day 0
Method: The ability of the thiomab drug conjugates prepared according to Example 11 to reduce B-cell tumor volume in xenograft models was tested according to the procedure disclosed in Example 9, herein. To SCID mice having Granta-519 cell xenograft tumors, control and anti-CD22 humanized 10F4v3 thiomab drug conjugates were administered at Day 0 in the doses shown in Table 14, below. The control HC(A118C) thiomab was anti-HER2 4D5 antibody.
Additional thiomab drug conjugates were tested in Granta-519 xenografts in CB17 SCID mice using the same protocol, although different drug doses were tested. The control antibody or control thiomab was anti-HER24D5 antibody or HC(A118C) thiomab.

[3] = system: BJAB-luc cells; test: BJAB-luc xenograft tumor volume reduction; type: in vivo, SCID mice; conditions: single I.V. treatment, 32 days
Method: Sixty-five SCID mice were injected with 2×10^7 BJAB-luc cells subcutaneously in a volume of 0.2 ml per mouse in the flank. Cells were suspended in HBSS. When the mean tumor size reached 100-200 mm^3, mice were randomly grouped into four groups of 9 mice each and given a single I.V. treatment (via the tail vein) of the anti-CD22 or control antibody indicated in Table 4, below.
Mean tumor volume was monitored in each treatment group for 32 days post-antibody injection. Tumor measurements were taken with calipers. Efficacy of the toxin-conjugated anti-CD22 antibodies was determined by comparison to the control and unconjugated antibodies. […]

[4] = system: cynomolgus monkey (cyno) CD22 expressed on the surface of CHO cells; test: Cell-based competitive binding assay with 125I antibody, Scatchard analysis; conditions: 4 hours at 4° C.
Method: Briefly, CHO cells stably expressing full length human CD22 (SEQ ID NO:27) or cynomolgus monkey (cyno) CD22 (SEQ ID NO:31). […] A cell-based, competitive binding assay was performed using serially diluted, unlabeled anti-CD22 antibody. Antibodies were allowed to bind to the cells for 4 hours at 4° C. Binding affinity, KD, of the antibodies was determined in accordance with standard Scatchard analysis performed utilizing a non-linear curve fitting program (see, for example, Munson et al., Anal Biochem, 107: 220-239, 1980).

[5] = target: T1, human CD22-beta-ECD-His tagged soluble antigen (Homo sapiens, UniProt P20273, A486R/Y639H); test: BIACORE surface plasmon resonance binding to soluble CD22 ECD; conditions: BIACORE 3000, 25° C., antibody coupled to chip, soluble CD22 ECD injected; one-to-one Langmuir model
T1 sequence (P20273 22-681 A486R/Y639H): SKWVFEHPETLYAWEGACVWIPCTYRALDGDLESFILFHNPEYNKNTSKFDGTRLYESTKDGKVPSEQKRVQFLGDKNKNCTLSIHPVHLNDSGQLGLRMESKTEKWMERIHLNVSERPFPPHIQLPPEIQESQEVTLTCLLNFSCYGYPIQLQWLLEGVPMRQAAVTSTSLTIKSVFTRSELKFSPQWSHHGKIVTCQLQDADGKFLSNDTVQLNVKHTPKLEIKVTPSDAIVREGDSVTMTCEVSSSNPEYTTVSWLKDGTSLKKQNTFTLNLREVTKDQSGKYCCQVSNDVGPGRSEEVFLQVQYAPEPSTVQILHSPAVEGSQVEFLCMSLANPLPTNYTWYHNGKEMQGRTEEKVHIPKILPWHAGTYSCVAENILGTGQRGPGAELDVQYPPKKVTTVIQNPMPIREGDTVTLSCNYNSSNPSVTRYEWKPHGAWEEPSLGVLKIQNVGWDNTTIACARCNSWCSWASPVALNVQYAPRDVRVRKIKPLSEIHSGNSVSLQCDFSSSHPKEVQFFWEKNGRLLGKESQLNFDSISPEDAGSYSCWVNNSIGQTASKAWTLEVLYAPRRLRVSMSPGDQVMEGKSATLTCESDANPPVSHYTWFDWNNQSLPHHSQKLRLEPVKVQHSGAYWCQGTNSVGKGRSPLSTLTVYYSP
Method: The binding affinity of murine and humanized 10F4 antibody for soluble CD22 extracellular domain (ECD) was determined by surface plasmon resonance measurement using a BIACORE® 3000 system (Biacore, Inc., Piscataway, N.J.). Briefly, carboxymethylated dextran biosensor chips (CMS, Biacore Inc.) were activated with N-ethyl-N′-(3-dimethylaminopropyl)-carbodiimide hydrochloride (EDC) and N-hydroxysuccinimide (NHS) according to the supplier's instructions. These activated chips were coated with anti-CD22 IgG1 antibody 10F4 (murine or humanized) by dilution to 5 μg/ml with 10 mM sodium acetate, pH 4.8, before injection at a flow rate of 5 μl/minute to achieve approximately 500 response units (RU) of coupled antibody. Next, 1M ethanolamine was injected to block unreacted groups. […] Association rates (kon) and dissociation rates (koff) were calculated using a simple one-to-one Langmuir binding model (BIAevaluation Software version 3.2). The equilibrium dissociation constant (Kd) was calculated as the ratio koff/kon. Anti-CD22 antibody, RFB4, was used as a control (Chemicon International, Inc., Temecula, Calif., catalog no. CBL147).

[6] = Table 4 study, 200 μg/m^2 DM1 (naked antibody 3.4 mg/kg)
[7] = Table 5 study, 200 μg/m^2 DM1 (naked antibody 4.5 mg/kg)

cynomolgus monkey (cyno) CD22 expressed on the surface of CHO cells, sequence (as listed by the source): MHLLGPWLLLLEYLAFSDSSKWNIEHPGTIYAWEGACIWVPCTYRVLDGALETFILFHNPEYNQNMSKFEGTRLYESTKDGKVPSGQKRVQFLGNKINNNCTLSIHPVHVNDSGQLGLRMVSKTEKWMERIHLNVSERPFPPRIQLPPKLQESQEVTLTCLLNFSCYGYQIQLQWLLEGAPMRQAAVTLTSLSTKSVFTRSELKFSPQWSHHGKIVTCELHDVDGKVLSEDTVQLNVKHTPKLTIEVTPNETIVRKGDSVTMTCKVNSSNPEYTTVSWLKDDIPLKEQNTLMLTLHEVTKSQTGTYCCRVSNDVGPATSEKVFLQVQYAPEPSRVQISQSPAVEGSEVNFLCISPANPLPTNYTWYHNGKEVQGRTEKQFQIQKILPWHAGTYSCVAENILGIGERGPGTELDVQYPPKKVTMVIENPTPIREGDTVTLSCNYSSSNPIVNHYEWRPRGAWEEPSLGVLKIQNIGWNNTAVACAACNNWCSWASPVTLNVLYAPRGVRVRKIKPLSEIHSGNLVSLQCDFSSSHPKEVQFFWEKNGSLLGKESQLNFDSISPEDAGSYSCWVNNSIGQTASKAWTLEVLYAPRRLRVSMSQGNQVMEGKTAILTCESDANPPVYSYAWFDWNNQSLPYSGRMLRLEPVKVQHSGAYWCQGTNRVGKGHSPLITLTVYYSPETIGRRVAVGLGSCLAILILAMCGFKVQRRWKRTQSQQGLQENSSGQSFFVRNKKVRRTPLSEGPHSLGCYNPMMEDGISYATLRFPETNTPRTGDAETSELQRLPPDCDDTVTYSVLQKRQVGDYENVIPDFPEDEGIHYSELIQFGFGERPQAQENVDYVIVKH

Molecule: Thio 10F4v3-HC(A118C)-BMPEO-DM1: conjugation of A118C thio hu HC-10F4v3 and bmpeo-DM1
- efficacy on mean tumor volume [1]: intermediate efficacy

Molecule: Thio 10F4v3-LC(V205C)-MCvcPAB-MMAE: conjugation of V205C thio hu LC-10F4v3 and MC-val-cit-PAB-MMAE
- mean tumor volume [2]: reduction in mean tumor volume for the duration of the study
- mean tumor volume ([2]; listed as 10F4-LC-V210C-MCvcPAB-MMAE): decrease in tumor volume during the study

B1: Humanized 10F4v1: humanized 10F4 version 1, VH SEQ ID NO:16, VL SEQ ID NO:17, IgG1 (antibody, V domains shown)
VH: EVQLVESGGGLVQPGGSLRLSCAASGYEFSRSWMNWVRQAPGKGLEWVGRIYPGDGDTNYSGKFKGKATLTADKSSSTAYLQMNSLRAEDTAVYYCARDGSSWDWYFDYWGQGTLVTVSS
VL: DIQMTQSPSSLSASVGDRVTITCRSSQSIVHSNGNTFLEWYQQKPGKAPKLLIYKVSNRFSGVPSRFSGSRSGTDFTLTISSLQPEDFATYYCFQGSQFPYTFGQGTKVEIKR
modifications: IgG1 constant regions; sequence is synthesized
- CR (number of animals attaining complete remission) [3, 6]: 0
- PR (number of animals with tumor regressed 50-99% from its initial volume) [3, 6]: 0
- TI (tumor incidence at the last time point; tumor-bearing animals / total animals) [3, 6]: 9/9
- Kd ([4]; listed as Hu 10F4v1): 1.4 nM and 1.8 nM

B2: Humanized 10F4v2: humanized 10F4 version 2, N28V in HVR-L1, VH SEQ ID NO:16, VL SEQ ID NO:18, IgG1 (antibody, V domains shown)
VH: EVQLVESGGGLVQPGGSLRLSCAASGYEFSRSWMNWVRQAPGKGLEWVGRIYPGDGDTNYSGKFKGKATLTADKSSSTAYLQMNSLRAEDTAVYYCARDGSSWDWYFDYWGQGTLVTVSS
VL: DIQMTQSPSSLSASVGDRVTITCRSSQSIVHSVGNTFLEWYQQKPGKAPKLLIYKVSNRFSGVPSRFSGSRSGTDFTLTISSLQPEDFATYYCFQGSQFPYTFGQGTKVEIKR
modifications: IgG1 constant regions; sequence is synthesized
- CR (number of animals attaining complete remission) [3, 7]: 0
- PR (number of animals with tumor regressed 50-99% from its initial volume) [3, 7]: 0
- TI (tumor incidence at the last time point; tumor-bearing animals / total animals) [3, 7]: 9/9
- Kd [4]: 2.1 nM

- koff/10^−4 [5]: 4.2
- kon/10^5 [5]: 0.26
B3: Chimeric 10F4: chimeric 10F4 anti-CD22 antibody (antibody, V domains shown)
VH: QVQLQQSGPELVKPGASVKISCKASGYEFSRSWMNWVKQRPGQGREWIGRIYPGDGDTNYSGKFKGKATLTADKSSSTAYMQLSSLTSVDSAVYFCARDGSSWDWYFDVWGAGTTVTVSS
VL: DILMTQTPLSLPVSLGDQASISCRSSQSIVHSNGNTFLEWYLQKPGQSPKLLIYKVSNRFSGVPDRFSGSGSGTDFTLKISRVEAEDLGVYYCFQGSQFPYTFGGGTKVEIK
